Data published in US20220290167.

Target: T1, recombinant B. taurus beta casein with HA tag, 6 histidine tag and HDEL peptide, produced by pMOZ702 in N. benthamiana leaf
T1 chain: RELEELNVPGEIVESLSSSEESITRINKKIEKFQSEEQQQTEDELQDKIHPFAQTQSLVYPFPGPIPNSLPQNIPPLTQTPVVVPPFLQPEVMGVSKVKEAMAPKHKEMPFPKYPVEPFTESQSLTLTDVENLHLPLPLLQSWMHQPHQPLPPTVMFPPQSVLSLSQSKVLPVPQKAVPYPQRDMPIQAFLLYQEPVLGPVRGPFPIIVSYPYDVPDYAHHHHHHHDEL

B1: recombinant B. taurus Fam20C expressed from pMOZ14 (protein)
chain: MLLPKLERSAARPSGEPGCSCAQPAAEAAAPGWAQARGHPGGELEAAASAAGDAGWPNKHTLRILQDFSSDPSSNLTSHSLEKLPPAAEAAEGAPPGQDPGVRRPPDPAHRPLPRDPGPRGPVLPPGLSGDGSLLTRLFQHPLYQVPIPPLTEGDVLFNVNSDIRFNPKAATAENPDWPHEGPEDEFLPTGEAAVDSYPNWLKFHIGINRYELYSRHNPAVGALLQDLGTQKITSVAMKSGGTQLKLIMTFQNYGQALFKPMKQTREQETPPDFFYFSDYERHNAEIAAFHLDRILDFRRVPPVAGRLVNMTKEIRDVTRDKKLWRTFFISPANNVCFYGECSYYCSTEHALCGKPDQIEGSLAAFLPDLALAKRKTWRNPWRRSYHKRKKAEWEVDPDYCEEVRQTPPYDSSHRLLDVMDMTIFDFLMGNMDRHHYETFEKFGNETFIIHLDNGRGFGKHSHDELSILVPLQQCCRIRRSTYLRLQLLAQEEHRLSLLMAEALRADRVAPVLFQPHLEALDRRLRIVLRAVGDCVEKDGLHSVVEDDLGPEHRAAAGRHDEL
- Western blot band migration of beta casein; BtFam20C coexpressed together with BtFam20A in tobacco leaf (FIG. 20, lane 7, '2 bovine kinases'): In lanes containing beta casein coexpressed with 1 human kinase, 2 human kinases, 1 bovine kinase or 2 bovine kinases the bands are shifted upward on the gel relative to the sample transformed with only beta casein

B2: recombinant H. sapiens Fam20C expressed from pMOZ11 (protein)
chain: LDLLPRLERRGARPSGEPGCSCAQPAAEVAAPGWAQVRGRPGEPPAASSAAGDAGWPNKHTLRILQDFSSDPSSNLSSHSLEKLPPAAEPAERALRGRDPGALRPHDPAHRPLLRDPGPRRSESPPGPGGDASLLARLFEHPLYRVAVPPLTEEDVLFNVNSDTRLSPKAAENPDWPHAGAEGAEFLSPGEAAVDSYPNWLKFHIGINRYELYSRHNPAIEALLHDLSSQRITSVAMKSGGTQLKLIMTFQNYGQALFKPMKQTREQETPPDFFYFSDYERHNAEIAAFHLDRILDFRRVPPVAGRMVNMTKEIRDVTRDKKLWRTFFISPANNICFYGECSYYCSTEHALCGKPDQIEGSLAAFLPDLSLAKRKTWRNPWRRSYHKRKKAEWEVDPDYCEEVKQTPPYDSSHRILDVMDMTIFDFLMGNMDRHHYETFEKFGNETFIIHLDNGRGFGKYSHDELSILVPLQQCCRIRKSTYLRLQLLAKEEYKLSLLMAESLRGDQVAPVLYQPHLEALDRRLRVVLKAVRDCVERNGLHSVVDDDLDTEHRAASARHDEL
- Western blot band migration of beta casein; HsFam20C alone coexpressed in tobacco leaf (FIG. 20, lane 5, '1 human kinase'): In lanes containing beta casein coexpressed with 1 human kinase, 2 human kinases, 1 bovine kinase or 2 bovine kinases the bands are shifted upward on the gel relative to the sample transformed with only beta casein
- Western blot band migration of beta casein; HsFam20C coexpressed together with HsFam20A in tobacco leaf (FIG. 19, lanes 3 and 4): In lanes containing beta casein coexpressed with the human kinases the bands are shifted upward on the gel relative to the sample transformed with only beta casein
- Western blot band migration of beta casein; HsFam20C coexpressed together with HsFam20A in tobacco leaf (FIG. 20, lane 8, '2 human kinases'): In lanes containing beta casein coexpressed with 1 human kinase, 2 human kinases, 1 bovine kinase or 2 bovine kinases the bands are shifted upward on the gel relative to the sample transformed with only beta casein

B3: recombinant H. sapiens Fam20A expressed from pMOZ12 (protein)
chain: QLRPRERPRGCPCTGRASSLARDSAAAASDPGTIVHNFSRTEPRTEPAGGSHSGSSSKLQALFAHPLYNVPEEPPLLGAEDSLLASQEALRYYRRKVARWNRRHKMYREQMNLTSLDPPLQLRLEASWVQFHLGINRHGLYSRSSPVVSKLLQDMRHFPTISADYSQDEKALLGACDCTQIVKPSGVHLKLVLRFSDFGKAMFKPMRQQRDEETPVDFFYFIDFQRHNAEIAAFHLDRILDFRRVPPTVGRIVNVTKEILEVTKNEILQSVFFVSPASNVCFFAKCPYMCKTEYAVCGNPHLLEGSLSAFLPSLNLAPRLSVPNPWIRSYTLAGKEEWEVNPLYCDTVKQIYPYNNSQRLLNVIDMAIFDFLIGNMDRHHYEMFTKFGDDGFLIHLDNARGFGRHSHDEISILSPLSQCCMIKKKTLLHLQLLAQADYRLSDVMRESLLEDQLSPVLTEPHLLALDRRLQTILRTVEGCIVAHGQQSVIVDGPVEQLAPDSGQANLTSHDEL
- Western blot band migration of beta casein; HsFam20A coexpressed together with HsFam20C in tobacco leaf (FIG. 19, lanes 3 and 4): In lanes containing beta casein coexpressed with the human kinases the bands are shifted upward on the gel relative to the sample transformed with only beta casein
- Western blot band migration of beta casein; HsFam20A coexpressed together with HsFam20C in tobacco leaf (FIG. 20, lane 8, '2 human kinases'): In lanes containing beta casein coexpressed with 1 human kinase, 2 human kinases, 1 bovine kinase or 2 bovine kinases the bands are shifted upward on the gel relative to the sample transformed with only beta casein

B4: recombinant B. taurus Fam20A expressed from pMOZ15 (protein)
chain: MHVSSHLGPRVRSRLQPRERPLGCPCARRAASPAPGPAPSAPRRVEPSGGGDPGSKLRALFAHPLYNEPEEPPLLGPEDSLLAGPEALRYYRRKVARWNRRRKMYKEQLNLTSPEPPVQLRQEASWVQFHLGINRHGLYPRSSPVVSKLLQDMRHFPTISADYSQDEKALLGACDCSQIVKPSGVHLKLVLRFSDFGKAMFKPMRQQRDEETPEDFFYFIDFQRHNAEIAAFHLDRILDFRRVPPTVGRLVNVTREILEVTRNEILQSVFFVSPANNVCFFAKCPYMCKTEYAVCGSPHLLEGSLSAFLPSLNLAPRFSMPSPWIRSYSLAGREEWEVNPLYCEAVKQAYPHNSSSRLLNIIDMAIFDFLIGNMDRHHYEMFTKFGEDGFLIHLDNARGFGRHSHDEVSILAPLFQCCRIKRKTLLHLQLLAQADYRLSDVMRESLLEDQLSPVLTEPHLLALDRRLQTVLRTVQDCIEAHGEQSVVADGPVGQWAPDSSRANATSHDEL
- Western blot band migration of beta casein; BtFam20A coexpressed together with BtFam20C in tobacco leaf (FIG. 20, lane 7, '2 bovine kinases'): In lanes containing beta casein coexpressed with 1 human kinase, 2 human kinases, 1 bovine kinase or 2 bovine kinases the bands are shifted upward on the gel relative to the sample transformed with only beta casein
